One block for each binder: values may come before it.
Key:
[1] = target: T1, mouse B7H4 ECD-His (R&D Systems, cat. no. 2154-B7-050) (mouse, UniProt Q7TSP5 29-256); assay: BLI (Octet HTX); antibody on anti-human IgG Fc capture sensor, mouse B7H4 ECD-His in solution; 2nd experiment
T1 construct: Bought ECD-His protein (26.6 kDa); also called mouse B7H4 extracellular domain
T1 sequence: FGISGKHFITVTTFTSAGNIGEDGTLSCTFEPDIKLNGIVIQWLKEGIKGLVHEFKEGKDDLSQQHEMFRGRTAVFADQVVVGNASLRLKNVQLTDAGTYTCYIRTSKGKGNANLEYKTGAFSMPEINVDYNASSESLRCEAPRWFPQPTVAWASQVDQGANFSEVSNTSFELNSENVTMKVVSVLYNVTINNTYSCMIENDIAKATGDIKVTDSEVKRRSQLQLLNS
Protocol: (§1) Target binding affinity of B7H4 antibodies was determined by label-free biolayer interferometry (BLI) on an Octet HTX instrument (FortéBio). Experiments were carried out while shaking at 1,000 RPM at 30° C. […] Anti-Human IgG Fc Capture (AHC) biosensors (FortéBio, cat. no. 18-5060) were pre-conditioned by exposure to 10 mM glycine (Sigma-Aldrich, cat. no. 15527) buffer pH 1.7 for 5 s, followed by neutralization in Sample Diluent (FortéBio, cat. no. 18-1048) for 5 s; both steps were repeated 2 times. Next, AHC sensors were loaded with antibody (1 μg/mL in Sample diluent) for 600 s. […] The theoretical molecular mass of human B7H4 and mouse B7H4 (as ECD-His tagged molecules) based on their amino acid sequences (26.8 kDa and 26.6 kDa respectively) were used for calculations. For each antibody a reference sensor was used, which was incubated with Sample Diluent instead of antigen. AHC sensors were regenerated by exposure to 10 mM glycine buffer pH 1.7 for 5 s, followed by neutralization in Sample Diluent for 5 s; both steps were repeated twice. Subsequently sensors were loaded again with antibody for the next cycle of kinetics measurements.
(§2) Data were acquired using Data Acquisition Software v9.0.0.49d (FortéBio) and analyzed with Data Analysis Software v9.0.0.12 (FortéBio). Data traces were corrected per antibody by subtraction of the reference sensor. The Y-axis was aligned to the last 10 s of the baseline, Interstep Correction alignment to dissociation and Savitzky-Golay filtering were applied. Data traces with a response<0.05 nm were excluded from analysis. The data was fitted with the 1:1 Global Full fit model using a window of interest for the association and dissociation times set at 300 s and 200 s respectively.

[2] = target: T2, human B7H4, full length, on cells (human, UniProt Q7Z7D3 25-282); assay: cell-based or functional assay
T2 sequence: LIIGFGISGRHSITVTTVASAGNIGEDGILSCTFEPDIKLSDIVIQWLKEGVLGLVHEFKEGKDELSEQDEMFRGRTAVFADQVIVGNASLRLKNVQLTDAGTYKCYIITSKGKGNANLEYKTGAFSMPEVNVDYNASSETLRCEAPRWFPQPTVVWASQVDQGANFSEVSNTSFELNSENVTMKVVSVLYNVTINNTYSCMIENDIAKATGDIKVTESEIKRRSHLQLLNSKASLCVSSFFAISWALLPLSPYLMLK

[3] = target: T3, pig (Sus scrofa) B7H4, full length, on HEK-293F cells (pig, UniProt Q7Z7D3 26-282 (human entry)); assay: flow cytometry, HEK-293F cells transiently transfected with pig B7H4 [panel Pig B7H4]
T3 construct: Uniprot F1SAY4; also called pig B7H4
T3 chain: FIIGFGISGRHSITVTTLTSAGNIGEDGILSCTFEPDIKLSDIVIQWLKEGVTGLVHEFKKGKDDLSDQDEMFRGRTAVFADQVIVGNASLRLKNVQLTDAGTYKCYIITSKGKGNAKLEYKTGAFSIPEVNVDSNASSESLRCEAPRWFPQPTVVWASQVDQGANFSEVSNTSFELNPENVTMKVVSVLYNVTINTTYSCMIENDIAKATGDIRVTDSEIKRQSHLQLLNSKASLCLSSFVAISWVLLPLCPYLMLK
Protocol: (§3) Cells (3×10⁴ cells/well) were incubated in polystyrene 96-well round-bottom plates (Greiner bio-one, cat. no. 650180) with serial dilutions of antibodies (ranging from 0.000458 to 30 μg/mL in 4-fold dilution steps) in 100 μL PBS/0.1% BSA/0.02% azide (staining buffer) at 4° C. for 30 min. Experiments were performed in technical duplicate. After washing twice in staining buffer, cells were incubated in 50 μL secondary antibody at 4° C. for 30 min. As a secondary antibody, R-Phycoerythrin (PE)-conjugated goat-anti-human IgG F(ab′)₂ (1:500 in FACS buffer; Jackson ImmunoResearch Laboratories, Inc., West Grove, PA, cat. no. 109-116-098), was used. Cells were washed twice in staining buffer, re-suspended in 30 μL FACS buffer containing Topro-3 (1:10,000 dilution) and analyzed on an iQue Screener (Intellicyt Corporation, USA). Binding curves were analyzed using non-linear regression (sigmoidal dose-response with variable slope) using GraphPad Prism V7.02 software (GraphPad Software, San Diego, CA, USA).

[4] = target: T4, human recombinant His tagged B7H4 protein (Sino Biological cat. no. 10738-H08H) (human, UniProt Q7Z7D3 29-258); assay: BLI (Octet HTX); antibody on anti-human IgG Fc capture sensor, human B7H4 ECD-His in solution; 1st experiment
T4 construct: Bought protein; theoretical mass 26.8 kDa; also called human B7H4; human B7H4 extracellular domain
T4 sequence: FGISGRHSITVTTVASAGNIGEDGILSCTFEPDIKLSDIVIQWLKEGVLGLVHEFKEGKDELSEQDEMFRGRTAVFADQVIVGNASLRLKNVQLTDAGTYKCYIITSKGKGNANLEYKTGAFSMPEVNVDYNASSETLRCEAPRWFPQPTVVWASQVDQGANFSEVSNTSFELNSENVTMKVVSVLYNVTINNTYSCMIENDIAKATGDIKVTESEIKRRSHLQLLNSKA
Protocol: as §1, §2

[5] = target: T3, pig (Sus scrofa) B7H4, full length, on …; assay: flow cytometry, HEK-293F cells transiently transfected with pig B7H4, PE anti-human IgG F(ab')2 [panel Pig B7H4]
Protocol: as §3

Kd [1]: 14 nM | koff [1]: 0.0024 s⁻¹ | kon [1]: 170000 M⁻¹ s⁻¹
B1: IgG1-B7H4-C5-FEAR (antibody, V domains shown)
VH: QLQLQESGPGLVKPSETLSLTCTVSGGSIKSGSYYWGWIRQPPGKGLEWIGNIYYSGSTYYNPSLRSRVTISVDTSKNQFSLKLSSVTAADTAVYYCAREGSYPNQFDPWGQGTLVTVSS
VL: EIVMTQSPATLSVSPGERATLSCRASQSVSSNLAWYQQKPGQAPRLLIYGASTRATGIPARFSGSGSGTEFTLTISSLQSEDFAVYYCQQYHSFPFTFGGGTKVEIKR
notes: Full length IgG1 FEAR, kappa; variable domains from US20190085080A1

B2: bsIgG1-huCD3-H101G-FEALxB7H4-C1-N52S-FEAR (bispecific antibody)
heavy 1: not shown
light 1: not shown
heavy 2: QVQLQQWGAGLLKPSETLSLTCAVYGGSFSGYYWSWIRQPPGKGLEWIGEISHSGSTNYNPSLKSRVTISIDTSKNQFSLKLTSVTAADTAVFYCARGLFNWNFDSWGQGTLVTVSSASTKGPSVFPLAPSSKSTSGGTAALGCLVKDYFPEPVTVSWNSGALTSGVHTFPAVLQSSGLYSLSSVVTVPSSSLGTQTYICNVNHKPSNTKVDKRVEPKSCDKTHTCPPCPAPEFEGGPSVFLFPPKPKDTLMISRTPEVTCVVVAVSHEDPEVKFNWYVDGVEVHNAKTKPREEQYNSTYRVVSVLTVLHQDWLNGKEYKCKVSNKALPAPIEKTISKAKGQPREPQVYTLPPSREEMTKNQVSLTCLVKGFYPSDIAVEWESNGQPENNYKTTPPVLDSDGSFFLYSRLTVDKSRWQQGNVFSCSVMHEALHNHYTQKSLSLSPGK
light 2: DIQMTQSPSSLSASVGDRVTITCRASQGIRNDLGWYQQKPGKAPKRLIYGASSLQSGVPSRFSGSGSGTEFTLTISSLQPEDFATYYCLQHNSYPRTFGQGTTVEIKRTVAAPSVFIFPPSDEQLKSGTASVVCLLNNFYPREAKVQWKVDNALQSGNSQESVTEQDSKDSTYSLSSTLTLSKADYEKHKVYACEVTHQGLSSPVTKSFNRGEC
notes: also called bslgG1-huCD3-H101G-FEALxB7H4-C1-N52S-FEAR; BslgG1-huCD3-H101G-FEALxB7H4-C1-N52S-FEAR
IC50 of T cell-mediated cytotoxicity, HCC1954 cells, highest of 4 donors [2]: 0.22 µg/mL | IC50 of T cell-mediated cytotoxicity, HCC1954 cells, lowest of 4 donors [2]: 0.06 µg/mL | IC50 of T cell-mediated cytotoxicity, MCF7 cells, highest of 4 donors [2]: 1.29 µg/mL | IC50 of T cell-mediated cytotoxicity, MCF7 cells, lowest of 4 donors [2]: 0.55 µg/mL | IC50 of T cell-mediated cytotoxicity, MDA-MB-468 cells, highest of 4 donors [2]: 0.16 µg/mL | IC50 of T cell-mediated cytotoxicity, MDA-MB-468 cells, lowest of 4 donors [2]: 0.08 µg/mL | IC50 of T cell-mediated cytotoxicity, NCI-H16650 cells, highest of 4 donors [2]: 5.07 µg/mL | IC50 of T cell-mediated cytotoxicity, NCI-H16650 cells, lowest of 4 donors [2]: 1.67 µg/mL | IC50 of T cell-mediated cytotoxicity, OVCAR3 cells, highest of 4 donors [2]: 1.63 µg/mL | IC50 of T cell-mediated cytotoxicity, OVCAR3 cells, lowest of 4 donors [2]: 0.09 µg/mL | IC50 of T cell-mediated cytotoxicity, SK-BR3 cells, highest of 4 donors [2]: 0.22 µg/mL | IC50 of T cell-mediated cytotoxicity, SK-BR3 cells, lowest of 4 donors [2]: 0.09 µg/mL | binding result [3]: no binding (tested: 30 µg/ml)

Kd [4]: 57 nM | koff [4]: 0.0054 s⁻¹ | kon [4]: 94000 M⁻¹ s⁻¹ | binding result [5]: binds
B3: IgG1-B7H4-C1-N52S-FEAR (antibody, V domains shown)
VH: QVQLQQWGAGLLKPSETLSLTCAVYGGSFSGYYWSWIRQPPGKGLEWIGEISHSGSTNYNPSLKSRVTISIDTSKNQFSLKLTSVTAADTAVFYCARGLFNWNFDSWGQGTLVTVSS
VL: DIQMTQSPSSLSASVGDRVTITCRASQGIRNDLGWYQQKPGKAPKRLIYGASSLQSGVPSRFSGSGSGTEFTLTISSLQPEDFATYYCLQHNSYPRTFGQGTTVEIKR
notes: Full length human IgG1 with L234F, L235E, D265A, K409R (FEAR) heavy chain constant region and kappa light chain; bivalent, monospecific; also called IgG1-B7H4-C1-052S-FEAR

Reference: patent US20240383982A1 (Genmab, published 2024)
